Sequences and labels used below:
B1: GST-Cdc20_(166-499) (GST-Cdc20^C) (domain or fragment, human, UniProt Q12834 166-499, looked up)
chain: RYIPSLPDRILDAPEIRNDYYLNLVDWSSGNVLAVALDNSVYLWSASSGDILQLLQMEQPGEYISSVAWIKEGNYLAVGTSSAEVQLWDVQQQKRLRNMTSHSARVGSLSWNSYILSSGSRSGHIHHHDVRVAEHHVATLSGHSQEVCGLRWAPDGRHLASGGNDNLVNVWPSAPGEGGWVPLQTFTQHQGAVKAVAWCPWQSNVLATGGGTSDRHIRIWNVCSGACLSAVDAHSQVCSILWSPHYKELISGHGFAQNQLVIWKYPTMAKVAELKGHTSRVLSLTMSPDGATVASAAADETLRLWRCFELDPARRREREKASAAKSSLIHQGIR
B2: Cdc20^C (Cdc20_(166-499), free in solution) (domain or fragment, human, UniProt Q12834 166-499, looked up)
chain: RYIPSLPDRILDAPEIRNDYYLNLVDWSSGNVLAVALDNSVYLWSASSGDILQLLQMEQPGEYISSVAWIKEGNYLAVGTSSAEVQLWDVQQQKRLRNMTSHSARVGSLSWNSYILSSGSRSGHIHHHDVRVAEHHVATLSGHSQEVCGLRWAPDGRHLASGGNDNLVNVWPSAPGEGGWVPLQTFTQHQGAVKAVAWCPWQSNVLATGGGTSDRHIRIWNVCSGACLSAVDAHSQVCSILWSPHYKELISGHGFAQNQLVIWKYPTMAKVAELKGHTSRVLSLTMSPDGATVASAAADETLRLWRCFELDPARRREREKASAAKSSLIHQGIR

Holding throughout (test): pull-down
For test [1], the target named is BubR1_(1-363) (human, UniProt O60566 1-363).
Test [2] concerns the target GST-BubR1^N (human, UniProt O60566 1-477).
The target in test [3] is B1.
For test [4], the target named is B2.
Test [5] addresses Cdc20 (full length, Cdc20^FL) (human, UniProt Q12834 1-499).

For B1, in test [1], the binding result is given as “binds”.

Turning to B2, the binding result in test [2] is given as “binds”.

B3: Cdc20_(1-163) (Cdc20^N) (domain or fragment, human, UniProt Q12834 1-163, looked up)
chain: MAQFAFESDLHSLLQLDAPIPNAPPARWQRKAKEAAGPAPSPMRAANRSHSAGRTPGRTPGKSSSKVQTTPSKPGGDRYIPHRSAAQMEVASFLLSKENQPENSQTPTKKEHQKAWALNLNGFDVEEAKILRLSGKPQNAPEGYQNRLKVLYSQKATPGSSRK
Turning to B3, the binding result in test [3] is given as “binds”.

B4: GST-Cdc20^N (domain or fragment, human, UniProt Q12834 1-163, looked up)
chain: MAQFAFESDLHSLLQLDAPIPNAPPARWQRKAKEAAGPAPSPMRAANRSHSAGRTPGRTPGKSSSKVQTTPSKPGGDRYIPHRSAAQMEVASFLLSKENQPENSQTPTKKEHQKAWALNLNGFDVEEAKILRLSGKPQNAPEGYQNRLKVLYSQKATPGSSRK
Take B4: the binding result in test [4] is given as “binds”.

B5: BubR1_(1-477) (BubR1^N) (domain or fragment, human, UniProt O60566 1-477, looked up)
chain: MAAVKKEGGALSEAMSLEGDEWELSKENVQPLRQGRIMSTLQGALAQESACNNTLQQQKRAFEYEIRFYTGNDPLDVWDRYISWTEQNYPQGGKESNMSTLLERAVEALQGEKRYYSDPRFLNLWLKLGRLCNEPLDMYSYLHNQGIGVSLAQFYISWAEEYEARENFRKADAIFQEGIQQKAEPLERLQSQHRQFQARVSRQTLLALEKEEEEEVFESSVPQRSTLAELKSKGKKTARAPIIRVGGALKAPSQNRGLQNPFPQQMQNNSRITVFDENADEASTAELSKPTVQPWIAPPMPRAKENELQAGPWNTGRSLEHRPRGNTASLIAVPAVLPSFTPYVEETARQPVMTPCKIEPSINHILSTRKPGKEEGDPLQRVQSHQQASEEKKEKMMYCKEKIYAGVGEFSFEEIRAEVFRKKLKEQREAELLTSAEKRAEMQKQIEEMEKKLKEIQTTQQERTGDQQEETMPTKET
Consider B5, for which, in test [5], the “fold increase of association with Mad2 against without Mad2” value was about 6 fold.

Source of the values: article PMC3713096 (Molecular cell, 2013).
